According to paper doi:10.1101/138099 (bioRxiv, 2017):
Where a chain is given by its changes, count along the chain named. Names and notes keep the numbering of the source. Values joined by “and” are separate entries in the source; they are usually repeats but may differ in a detail not shown here. Identical values can stand only once.

What was measured:
[1] = molecular target: YweA_(BslA171-181 C180A), recombinant chimeric protein (Bacillus subtilis) (UniProt P71014); experiment: non-reducing SDS-PAGE
[2] = molecular target: YweA_(BslA171-181), recombinant chimeric protein (Bacillus subtilis); experiment: SEC + other: non-reducing SDS-PAGE
[3] = molecular target: YweA_(BslA171-181 C178A), recombinant chimeric protein (Bacillus subtilis) (UniProt P71014); experiment: non-reducing SDS-PAGE
[4] = molecular target: the molecule itself; experiment: SEC + other: non-reducing SDS-PAGE
cross-linking = molecular target: the molecule itself; experiment: cross-linking

## YweA_(BslA171-181 C180A), recombinant chimeric protein (from UniProt P71014 171-181)
[1]
  stoichiometry N: 2

## YweA_(BslA171-181), recombinant chimeric protein
[2]
  stoichiometry N: 2

## YweA_(BslA171-181 C178A), recombinant chimeric protein (from UniProt P71014 171-181)
[3]
  stoichiometry N: 2

B1: Recombinant BslA_(42-181) (domain or fragment, Bacillus subtilis, UniProt P71014 42-181, looked up)
chain: MRTQSTASLFATITGASKTEWSFSDIELTYRPNTLLSLGVMEFTLPSGFTANTKDTLNGNALRTTQILNNGKTVRVPLALDLLGAGEFKLKLNNKTLPAAGTYTFRAENKSLSIGNKFYAEASIDVAKRSTPPTQPCGCN
[4]
  stoichiometry N: 2 and 4

B2: BslA_(C178A), recombinant BslA_(42-181) variant (domain or fragment, Bacillus subtilis, UniProt P71014 42-181, looked up)
chain: B1 chain with C137A
[4]
  stoichiometry N: 2

B3: BslA_(C180A), recombinant BslA_(42-181) variant (domain or fragment, Bacillus subtilis, UniProt P71014 42-181, looked up)
chain: B1 chain with C139A
[4]
  stoichiometry N: 2

B4: BslA, wild type, from the B. subtilis NCIB3610 biofilm (natural protein, UniProt P71014 29-181, looked up)
chain: AESTSTKAHTESTMRTQSTASLFATITGASKTEWSFSDIELTYRPNTLLSLGVMEFTLPSGFTANTKDTLNGNALRTTQILNNGKTVRVPLALDLLGAGEFKLKLNNKTLPAAGTYTFRAENKSLSIGNKFYAEASIDVAKRSTPPTQPCGCN
cross-linking
  stoichiometry N: 2 and 4

B5: BslA_(C178A) produced in the B. subtilis bslA deletion strain (NRS5177) (natural protein, Bacillus subtilis, UniProt P71014 29-181, looked up)
chain: B4 chain with C150A
cross-linking
  stoichiometry N: 2

B6: BslA_(C180A) produced in the B. subtilis bslA deletion strain (NRS5178) (natural protein, Bacillus subtilis, UniProt P71014 29-181, looked up)
chain: B4 chain with C152A
cross-linking
  stoichiometry N: 2
